# Source: PMC8196545 (Cell reports, 2021)
# B1: c10819 (antibody, V domains shown)
# VH: EMRLEESGGALVKPGGSLRLSCVASGFKLSEWSLMWVRQAPGKGLQWVSSISLNQDYISYAGSVRGRFDVFRDRTQTSLLLNMNKLKTEDTGIYFCARVHAWRYFDWVNRRSPVEKVLSIDLWGRGTLVIVSS
# VL: SGATQPPSVSVSKGETARITCSGVELSSQYVSWYRQRPGQSPVLVMFHNNSRASRIPERFSASDSGDTATLTIAGAQDVDEAEYYCQTWDSKNYVTFGGGTKLTVL
# B2: c5260 (antibody, V domains shown)
# VH: QVRLQESGPRLVKPSETLSLTCTVSGASVTSYSWSWIRYSAERGLEWIGRILPTIGSNRANPSLHFRVGMSADTSKNLLSLRLTSLTAADTAIYFCARDLVRDYDSWGGDYSTFHGIDVWGQGTTVIVSL
# VL: NSLLTQPPSVSESPGKTVNISCTRTSGAITWDFVQWYQKRPGSVPTVVIYANDRRPSGVPDRFSGSIDSSSNSAALTISRLKTEDEAEYYCQSFHPRSHVVFGGGTKLTVL
# B3: c5358 (antibody, V domains shown)
# VH: RLQLRESGPALVRPSETLSLTCTVSGGPTSDFFWSWVRQAAGGRLEWIGRIYASDGSTKMNPALHTRIGLELNTLENIFNLRLLSVTAADTAVYFCVREEVHGYDSWNSDSGTYNGIDAWGLGTPVTVSS
# VL: SVVLTQPPSVSGSPGETVIISCTRSSGAIPSRHVQWYRQRPGGLPARVIFANSQRPHWVPDRYSASVDASSNTASLTISGLQPDDEAKYFCQSFDDTRHHHIVFGGGTEVIVV
# B4: c26412 (antibody, V domains shown)
# VH: EVRLVQSGGGVVRPGGSLRLSCSASGFSFSRSAMSWVRQAPGKELQWVAAISGSGNSHHISDAFRGRVSISRNNENDSVFLQMSNLRLDDTGKYFCAKSEGGRSGWYYWATEYFQHWGQGAVVTVSS
# VL: SSELTQPPSVSVSPGQTARISCSGHTLPQRYATWYQQKPGRAPLLIIFGNNERPSGIPARFSVSASGKSAILTITGVQAEDEGDYICQSSDGSHTSLFFGGGTKLTVL
# B5: c5299 (antibody, V domains shown)
# VH: QVRLLESGPGLVKPSGTLSLTCHVSGASVTSFSWSWVRQSAQKGLQWLGRILPTNGSNKSNPSLHPRVGLAADTSTNQLSLRLTSVTAADSGIYFCARDFVRDYDSWASDYSTLHGIDVWGPGTSVTVSF
# VL: NSLLTQPPSVSESPGKTVTISCTRTSGDITWDFVQWYRHRPGTSPTLVIFANDRRASGVPDRFSGSIDSSSNTAALTISGLKTDDEADYYCQSFHPRYHVVFGGGTKLTVL
# B6: c5616 (antibody, V domains shown)
# VH: LVRLAESGGGVVRPGESLTLSCATSGFSFSSYGMHWVRQIPGKGLEWVAVIWNDGSRRYYSDSVQGRFTIAKDTSNKTLSLHMRDLQVGDTAVYFCARAYGPQSEMDSWGLGTLVTVSS
# VL: SSELTQPPSVSVSPGQTAILTCVGDILPRKHAYWYRQRAGRAPTLIVFGDNNRPSGIPARFSGFTSGTVATLVITAAQVDDGGDYFCYSADNSGNHRGVFGGGTRLTIL
# B7: c10969 (antibody, V domains shown)
# VH: AGHLVESGGKLISPGGSLSLSCVASGFTFKNAHMTWVRQVPGKGLEWIALMKSHADGSHTDYSPSVRDRCAISRDDSTSSLFLHLYNLQLDDTGIYYCVHLSSPDEWGLGTAVTVSS
# VL: HIVLTQSPVTLSGSQGDTVALSCRANQSLRSHLAWYQHRPGQTPKVLIYEVSRRRPATPPRFSGSGSGTEFTLVIRGLEPEDSAVYYCQQGDFWPFSFGQGTNLEIT
# B8: c807 (antibody, V domains shown)
# VH: QVQLQESAPRLVTTSETLSLTCTVFGGQFYPFFYSWVRQSPGGKLQWIGRKYSSTGSMRTNPSLHTRVGMPLDHSKSQIGLTMSSMTAADTGIYYCVRDIMREFDSVDGSGGVYGGVDVWGRGTTVTVSS
# VL: NFMLTQPPSVSESPGKTVTISCTRNSGSIASNSVYWYRQRPGSPPTTLIHDNNRRPTGVPDRFSASIDTSSNSASLTISSLKTEDEADYYCQSYDNGNHVIFGGGTNLLVL
# Biological target: HIV-1 NL4-3 Env on infected cells (HIV-1 group M subtype B, NL4-3 (pNL4-3 …, strain))
row,Binder,binding result
1,B1,binds
2,B2,binds
3,B3,binds
4,B4,binds
5,B5,binds
6,B6,binds
7,B7,binds
8,B8,binds
